Patent publication US20100279930A1 (published 2010)
Read-outs that look alike come from different tables or passages of the source. Values belong to the binder of their own block, whether it stands above or below them.

Experiments:
Experiment in all cases: 125I-PP displacement
human Y4 receptor [1] = molecular target: T1, human Y4 receptor (human, UniProt P50391 1-375)
human Y4 receptor [2] = molecular target: T1, human Y4 receptor; remark: listed apart in the source
human Y4 receptor [3] = molecular target: T1, human Y4 receptor; remark: listed apart in the source

T1 sequence (P50391 whole entry): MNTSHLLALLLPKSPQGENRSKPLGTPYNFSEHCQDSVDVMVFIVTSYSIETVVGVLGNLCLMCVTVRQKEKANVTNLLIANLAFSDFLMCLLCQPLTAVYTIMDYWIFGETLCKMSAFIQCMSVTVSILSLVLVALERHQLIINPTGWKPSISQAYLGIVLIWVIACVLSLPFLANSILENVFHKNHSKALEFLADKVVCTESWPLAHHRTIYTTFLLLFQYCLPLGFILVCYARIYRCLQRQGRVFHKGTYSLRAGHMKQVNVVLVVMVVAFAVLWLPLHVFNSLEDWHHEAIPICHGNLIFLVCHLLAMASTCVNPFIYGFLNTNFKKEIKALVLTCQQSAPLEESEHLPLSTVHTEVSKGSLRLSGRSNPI

Binder: PAPLEPEYPGDNATPEEMAKYAAELRRYINKLTRPRY [4058077]
IC50 (human Y4 receptor [2]): 0.059 nM

Binder: PAPLEPKYPGDNATPEELAKYAAELRRYINKLTRPRY [4058671]
IC50 (human Y4 receptor [1]): 0.105 nM

Binder: PAPLEPKYPGDDATPQQMAKYAAELRRYINKLTRPRY [4058670]
IC50 (human Y4 receptor [1]): 0.08 nM

Binder: PLEPEYPGDDATPQEMARYAAELRRYINKLTRPRY [4058679]
IC50 (human Y4 receptor [1]): 0.078 nM

Binder: PLEPEYPGDNATPEELAKYAAELRRYINKLTRPRY [4058677]
IC50 (human Y4 receptor [1]): 0.138 nM

Binder: PLEPEYPGDDATPEEMAKYAAELRRYINKLTRPRY [4058673]
IC50 (human Y4 receptor [1]): 0.091 nM

Binder: PLEPEYPGDNATPEEMAKYAADLRRYINKLTRPRY [4058675]
IC50 (human Y4 receptor [1]): 0.095 nM

Binder: PLEPEYPGDNATPEEMAKYAAALRRYINKLTRPRY [4058676]
IC50 (human Y4 receptor [1]): 0.061 nM

Binder: PLEPEYPGDNATPEEMARYAAELRRYINKLTRPRY [4058674]
IC50 (human Y4 receptor [1]): 0.082 nM

Binder: AAPLEPVYPGDNATPEQMAQYAADLRRYINLLTRPRY [6656]
IC50 (human Y4 receptor [3]): 0.22 nM

Binder: HAPLEPTYPGDNATPEQMARYAAALRRYINKLTRPRY [4058069]
IC50 (human Y4 receptor [2]): 0.07 nM

Binder: AAPLEPSYPGDDATPQQMAHYYSELRRYINLLTRPRY [4058082]
IC50 (human Y4 receptor [2]): 0.11 nM

Binder: PAPLEPKAPGDNATPEQMAKYAAELRRYINKLTRPRY [4058668]
IC50 (human Y4 receptor [1]): 0.074 nM

Binder: GAPLEPEYPGDNATPEEMAKYAAELRRYINKLTRPRY [4058073]
IC50 (human Y4 receptor [2]): 0.131 nM

Binder: PAPLEPKYPGDNATPEQMAKYAAELRRYINLLTRPRY [4058169]
IC50 (human Y4 receptor [2]): 0.099 nM

Binder: HAPLEPEYPGDNATPEEMAKYAAELRRYINKLTRPRY [4058074]
IC50 (human Y4 receptor [2]): 0.116 nM

Binder: PAPLEPKYPGDNASPEQMAKYAAELRRYINKLTRPRY [4058669]
IC50 (human Y4 receptor [1]): 0.043 nM

Binder: AAPLEPTYPGDNATPEQMARYAAALRRYINKLTRPRY [4058068]
IC50 (human Y4 receptor [2]): 0.026 nM

Binder: PAPLEPHYPGDNATPEELAKYAAELRRYINKLTRPRY [4058678]
IC50 (human Y4 receptor [1]): 0.09 nM

Binder: GAPLEPKYPGDNATPEQLAKYAAELRRYINKLTRPRY [4058167]
IC50 (human Y4 receptor [2]): 0.06 nM

Binder: APLEPFYPGDNATPEQMAQYAAALRRYINMLTRPRY [6605]
IC50 (human Y4 receptor [3]): 0.13 nM

Binder: APLEPVYPGDNATPEQMAQYAADLRKYINMLTRPRY [6431]
IC50 (human Y4 receptor [3]): 0.47 nM

Binder: APLEPVYPGDNATPEQMAQYAADLRRYINLLTRPRY [6430]
IC50 (human Y4 receptor [3]): 0.41 nM

Binder: APLEPVYPGDNATPEQTAQYAADLRRYINTLTRPRY [6638]
IC50 (human Y4 receptor [3]): 0.5 nM

Binder: APLEPEYPGDNATPEQMAQYAAELRRYINMLTRPRY [6458]
IC50 (human Y4 receptor [3]): 0.18 nM

Binder: PLEPKYPGDNATPEQMAKYAAELRRYINKLTRPRY [4058158]
IC50 (human Y4 receptor [2]): 0.047 nM

B1: 4058071 (protein)
chain: CAPLEPTYPGDNATPEQMARYAAALRRYINKLTRPRYCAPLEPTYPGDNATPEQMARYAAALRRYINKLTRPRY
IC50 (human Y4 receptor [2]): 0.143 nM

Continued, values first:

IC50 (human Y4 receptor [1]): 0.076 nM
Binder: PAPLEPKYPGDDATPQEMARYAAELRRYINKLTRPRY [4058686]

IC50 (human Y4 receptor [1]): 0.081 nM
Binder: AAPLEPEYPGDDATPQEMARYAAELRRYINKLTRPRY [4058683]

IC50 (human Y4 receptor [1]): 0.099 nM
Binder: PAPLEPHYPGDDATPEEMAKYAAELRRYINKLTRPRY [4058701]

IC50 (human Y4 receptor [1]): 0.087 nM
Binder: PAPLEPEYPGDDATPQEMARYAAELRRYINKLTRPRY [4058681]

IC50 (human Y4 receptor [1]): 0.09 nM
Binder: AKPLEPEYPGDDATPQEMARYAAELRRYINKLTRPRY [4058685]

IC50 (human Y4 receptor [1]): 0.087 nM
Binder: YAPLEPEYPGDDATPQEMARYAAELRRYINKLTRPRY [4058684]

IC50 (human Y4 receptor [1]): 0.097 nM
Binder: PAPLEPHYPGDDATPEELAKYAAELRRYINKLTRPRY [4058705]

IC50 (human Y4 receptor [1]): 0.076 nM
Binder: GAPLEPEYPGDDATPQEMARYAAELRRYINKLTRPRY [4058682]

IC50 (human Y4 receptor [3]): 0.17 nM
Binder: HAPLEPVYPGDNATPEQMAQYAADLRRYINMLTRPRY [compound of SEQ ID NO:53 (code 6650)]

IC50 (human Y4 receptor [3]): 0.21 nM
Binder: PAPLEPVYPGDNATPEQMAQYAADLRRYINMLTRPRY [compound of SEQ ID NO:56 (code 6653)]

IC50 (human Y4 receptor [1]): 0.069 nM
Binder: APLEPEYPGDDATPQEMARYAAELRRYINKLTRPRY [4058680]

IC50 (human Y4 receptor [1]): 0.089 nM
Binder: APLEPKYPGDNATPEELAKYAAELRRYINKLTRPRY [4058688]

IC50 (human Y4 receptor [1]): 0.089 nM
Binder: APLEPKYPGDDATPEELAHYYSELRRYINKLTRPRY [4058707]

IC50 (human Y4 receptor [1]): 0.045 nM
Binder: APLEPHYPGDNATPEEMAKYAAELRRYINKLTRPRY [4058696]

IC50 (human Y4 receptor [1]): 0.059 nM
Binder: APLEPHYPGDNATPEELAKYAAELRRYINKLTRPRY [4058703]

IC50 (human Y4 receptor [1]): 0.129 nM
Binder: HAPLEPKYPGDDATPEELAHYYSELRRYINKLTRPRY [4058710]

IC50 (human Y4 receptor [1]): 0.083 nM
Binder: PAPLEPKYPGDDATPEELAHYYSELRRYINKLTRPRY [4058709]

IC50 (human Y4 receptor [1]): 0.079 nM
Binder: AAPLEPKYPGDDATPEELAHYYSELRRYINKLTRPRY [4058708]

IC50 (human Y4 receptor [1]): 0.095 nM
Binder: AAPLEPHYPGDNATPEEMAKYAAELRRYINKLTRPRY [4058697]

IC50 (human Y4 receptor [1]): 0.131 nM
Binder: HAPLEPKYPGDNATPEELAKYAAELRRYINKLTRPRY [4058692]

IC50 (human Y4 receptor [1]): 0.092 nM
Binder: HAPLEPHYPGDNATPEEMAKYAAELRRYINKLTRPRY [4058699]

IC50 (human Y4 receptor [1]): 0.072 nM
Binder: GAPLEPHYPGDNATPEEMAKYAAELRRYINKLTRPRY [4058698]

IC50 (human Y4 receptor [1]): 0.098 nM
Binder: AAPLEPKYPGDNATPEELAKYAAELRRYINKLTRPRY [4058689]

IC50 (human Y4 receptor [1]): 0.077 nM
Binder: YAPLEPKYPGDNATPEELAKYAAELRRYINKLTRPRY [4058693]

IC50 (human Y4 receptor [1]): 0.098 nM
Binder: GAPLEPKYPGDNATPEELAKYAAELRRYINKLTRPRY [4058691]

IC50 (human Y4 receptor [1]): 0.094 nM
Binder: AAPLEPHYPGDNATPEELAKYAAELRRYINKLTRPRY [4058704]

IC50 (human Y4 receptor [1]): 0.071 nM
Binder: AKPLEPKYPGDNATPEELAKYAAELRRYINKLTRPRY [4058690]

IC50 (human Y4 receptor [3]): 0.13 nM
Binder: KPLEPVYPGDNATPEQMAQYAADLRRYINMLTRPRY (not fully specified; lauryl-lysine at position 1 (replaces Ala 1)) [compound of SEQ ID NO:11 (code 6435)]

IC50 (human Y4 receptor [1]): 0.096 nM
Binder: PLEPKYPGDNATPEELAKYAAELRRYINKLTRPRY [4058687]

IC50 (human Y4 receptor [1]): 0.086 nM
Binder: PLEPHYPGDNATPEELAKYAAELRRYINKLTRPRY [4058702]

IC50 (human Y4 receptor [1]): 0.084 nM
Binder: PLEPKYPGDDATPEELAHYYSELRRYINKLTRPRY [4058706]

IC50 (human Y4 receptor [1]): 0.055 nM
Binder: PAPLEPTYPGDNATPEELARYAAALRRYINKLTRPRY [4058738]
